Experimental data published in patent US20150344570A1 (published 2015).

B1: GpH7-A5/GpH7-B3 variant K326_12R/GpL16-k0 (antibody, human IgG1, kappa)
heavy 1: not shown
heavy 2: not shown
light: DIVMTQSPLSLPVTPGEPASISCQASESLVHSNRNTYLHWYLQKPGQSPQLLIYKVSNRFSGVPDRFSGSGSGTDFTLKISRVEAEDVGVYYCSQNTHVPPTFGQGTKVEIERTVAAPSVFIFPPSDEQLKSGTASVVCLLNNFYPREAKVQWKVDNALQSGNSQESVTEQDSKDSTYSLSSTLTLSKADYEKHKVYACEVTHQGLSSPVTKSFNRGEC
notes: also called He Ab K326_12R
B2: GpH7-A5/GpH7-B3 variant L234_04F/GpL16-k0 (antibody, human IgG1, kappa)
heavy 1: not shown
heavy 2: not shown
light: B1 light
notes: also called He Ab L234_04F
B3: GpH7-A5/GpH7-B3 variant S239_08L/GpL16-k0 (antibody, human IgG1, kappa)
heavy 1: not shown
heavy 2: not shown
light: B1 light
notes: also called He Ab S239_08L
B4: GpH7-A5/GpH7-B3 variant S239_09D/GpL16-k0 (antibody, human IgG1, kappa)
heavy 1: not shown
heavy 2: not shown
light: B1 light
notes: also called He Ab S239_09D
B5: GpH7-A5/GpH7-B3 variant K326_06M/GpL16-k0 (antibody, human IgG1, kappa)
heavy 1: not shown
heavy 2: not shown
light: B1 light
notes: also called He Ab K326_06M
B6: GpH7-A5/GpH7-B3 variant T335_07I/GpL16-k0 (antibody, human IgG1, kappa)
heavy 1: not shown
heavy 2: not shown
light: B1 light
notes: also called He Ab T335_07I
B7: GpH7-A5/GpH7-B3 variant G236_03V/GpL16-k0 (antibody, human IgG1, kappa)
heavy 1: not shown
heavy 2: not shown
light: B1 light
notes: also called He Ab G236_03V
B8: GpH7-A5/GpH7-B3 variant Y296_04F/GpL16-k0 (antibody, human IgG1, kappa)
heavy 1: not shown
heavy 2: not shown
light: B1 light
notes: also called He Ab Y296_04F
B9: GpH7-A5/GpH7-B3 variant V266_07I/GpL16-k0 (antibody, human IgG1, kappa)
heavy 1: not shown
heavy 2: not shown
light: B1 light
notes: also called He Ab V266_07I
B10: GpH7-A5/GpH7-B3 variant L235_15Y/GpL16-k0 (antibody, human IgG1, kappa)
heavy 1: not shown
heavy 2: not shown
light: B1 light
notes: also called He Ab L235_15Y
B11: GpH7-A5/GpH7-B3 variant K334_04F/GpL16-k0 (antibody, human IgG1, kappa)
heavy 1: not shown
heavy 2: not shown
light: B1 light
notes: also called He Ab K334_04F
B12: GpH7-A5/GpH7-B3 variant K334_16H/GpL16-k0 (antibody, human IgG1, kappa)
heavy 1: not shown
heavy 2: not shown
light: B1 light
notes: also called He Ab K334_16H
B13: GpH7-A5/GpH7-B3 variant A330_16H/GpL16-k0 (antibody, human IgG1, kappa)
heavy 1: not shown
heavy 2: not shown
light: B1 light
notes: also called He Ab A330_16H
B14: GpH7-A5/GpH7-B3 variant K326_19Q/GpL16-k0 (antibody, human IgG1, kappa)
heavy 1: not shown
heavy 2: not shown
light: B1 light
notes: also called He Ab K326_19Q
B15: GpH7-A5/GpH7-B3 variant T335_18N/GpL16-k0 (antibody, human IgG1, kappa)
heavy 1: not shown
heavy 2: not shown
light: B1 light
notes: also called He Ab T335_18N
B16: GpH7-A5/GpH7-B3 variant K326_10E/GpL16-k0 (antibody, human IgG1, kappa)
heavy 1: not shown
heavy 2: not shown
light: B1 light
notes: also called He Ab K326_10E
B17: GpH7-A5/GpH7-B3 variant H268_02A/GpL16-k0 (antibody, human IgG1, kappa)
heavy 1: not shown
heavy 2: not shown
light: B1 light
notes: also called He Ab H268_02A
B18: GpH7-A5/GpH7-B3 variant S337_08L/GpL16-k0 (antibody, human IgG1, kappa)
heavy 1: not shown
heavy 2: not shown
light: B1 light
notes: also called He Ab S337_08L
B19: GpH7-A5/GpH7-B3 variant Y296_16H/GpL16-k0 (antibody, human IgG1, kappa)
heavy 1: not shown
heavy 2: not shown
light: B1 light
notes: also called He Ab Y296_16H
B20: GpH7-A5/GpH7-B3 variant T335_15Y/GpL16-k0 (antibody, human IgG1, kappa)
heavy 1: not shown
heavy 2: not shown
light: B1 light
notes: also called He Ab T335_15Y
B21: GpH7-A5/GpH7-B3 variant K334_08L/GpL16-k0 (antibody, human IgG1, kappa)
heavy 1: not shown
heavy 2: not shown
light: B1 light
notes: also called He Ab K334_08L
B22: GpH7-A5/GpH7-B3 variant L328_14T/GpL16-k0 (antibody, human IgG1, kappa)
heavy 1: not shown
heavy 2: not shown
light: B1 light
notes: also called He Ab L328_14T
B23: GpH7-A5/GpH7-B3 variant S337_09D/GpL16-k0 (antibody, human IgG1, kappa)
heavy 1: not shown
heavy 2: not shown
light: B1 light
notes: also called He Ab S337_09D
B24: GpH7-A5/GpH7-B3 variant L234_20W/GpL16-k0 (antibody, human IgG1, kappa)
heavy 1: not shown
heavy 2: not shown
light: B1 light
notes: also called He Ab L234_20W
B25: GpH7-A5/GpH7-B3 variant S337_10E/GpL16-k0 (antibody, human IgG1, kappa)
heavy 1: not shown
heavy 2: not shown
light: B1 light
notes: also called He Ab S337_10E
B26: GpH7-A5/GpH7-B3 variant S337_20W/GpL16-k0 (antibody, human IgG1, kappa)
heavy 1: not shown
heavy 2: not shown
light: B1 light
notes: also called He Ab S337_20W
B27: GpH7-A5/GpH7-B3 variant T335_13S/GpL16-k0 (antibody, human IgG1, kappa)
heavy 1: not shown
heavy 2: not shown
light: B1 light
notes: also called He Ab T335_13S
B28: GpH7-A5/GpH7-B3 variant E333_09D/GpL16-k0 (antibody, human IgG1, kappa)
heavy 1: not shown
heavy 2: not shown
light: B1 light
notes: also called He Ab E333_09D
B29: GpH7-A5/GpH7-B3 variant I336_06M/GpL16-k0 (antibody, human IgG1, kappa)
heavy 1: not shown
heavy 2: not shown
light: B1 light
notes: also called He Ab I336_06M
B30: GpH7-A5/GpH7-B3 variant S267_10E/GpL16-k0 (antibody, human IgG1, kappa)
heavy 1: not shown
heavy 2: not shown
light: B1 light
notes: also called He Ab S267_10E
B31: GpH7-A5/GpH7-B3 variant H268_18N/GpL16-k0 (antibody, human IgG1, kappa)
heavy 1: not shown
heavy 2: not shown
light: B1 light
notes: also called He Ab H268_18N
B32: GpH7-A5/GpH7-B3 variant L328_20W/GpL16-k0 (antibody, human IgG1, kappa)
heavy 1: not shown
heavy 2: not shown
light: B1 light
notes: also called He Ab L328_20W
B33: GpH7-A5/GpH7-B3 variant L234_15Y/GpL16-k0 (antibody, human IgG1, kappa)
heavy 1: not shown
heavy 2: not shown
light: B1 light
notes: also called He Ab L234_15Y
B34: GpH7-A5/GpH7-B3 variant T335_20W/GpL16-k0 (antibody, human IgG1, kappa)
heavy 1: not shown
heavy 2: not shown
light: B1 light
notes: also called He Ab T335_20W
B35: GpH7-A5/GpH7-B3 variant S267_09D/GpL16-k0 (antibody, human IgG1, kappa)
heavy 1: not shown
heavy 2: not shown
light: B1 light
notes: also called He Ab S267_09D
B36: GpH7-A5/GpH7-B3 variant L235_04F/GpL16-k0 (antibody, human IgG1, kappa)
heavy 1: not shown
heavy 2: not shown
light: B1 light
notes: also called He Ab L235_04F
B37: GpH7-A5/GpH7-B3 variant S337_07I/GpL16-k0 (antibody, human IgG1, kappa)
heavy 1: not shown
heavy 2: not shown
light: B1 light
notes: also called He Ab S337_07I
B38: GpH7-A5/GpH7-B3 variant L235_20W/GpL16-k0 (antibody, human IgG1, kappa)
heavy 1: not shown
heavy 2: not shown
light: B1 light
notes: also called He Ab L235_20W
B39: GpH7-A5/GpH7-B3 variant G236_07I/GpL16-k0 (antibody, human IgG1, kappa)
heavy 1: not shown
heavy 2: not shown
light: B1 light
notes: also called He Ab G236_07I
B40: GpH7-A5/GpH7-B3 variant S239_10E/GpL16-k0 (antibody, human IgG1, kappa)
heavy 1: not shown
heavy 2: not shown
light: B1 light
notes: also called He Ab S239_10E
B41: GpH7-A5/GpH7-B3 variant S267_02A/GpL16-k0 (antibody, human IgG1, kappa)
heavy 1: not shown
heavy 2: not shown
light: B1 light
notes: also called He Ab S267_02A
B42: GpH7-A5/GpH7-B3 variant Y296_09D/GpL16-k0 (antibody, human IgG1, kappa)
heavy 1: not shown
heavy 2: not shown
light: B1 light
notes: also called He Ab Y296_09D
B43: GpH7-A5/GpH7-B3 variant T335_16H/GpL16-k0 (antibody, human IgG1, kappa)
heavy 1: not shown
heavy 2: not shown
light: B1 light
notes: also called He Ab T335_16H
B44: GpH7-A5/GpH7-B3 variant K334_19Q/GpL16-k0 (antibody, human IgG1, kappa)
heavy 1: not shown
heavy 2: not shown
light: B1 light
notes: also called He Ab K334_19Q
B45: GpH7-A5/GpH7-B3 variant V266_08L/GpL16-k0 (antibody, human IgG1, kappa)
heavy 1: not shown
heavy 2: not shown
light: B1 light
notes: also called He Ab V266_08L
B46: GpH7-A5/GpH7-B3 variant T335_10E/GpL16-k0 (antibody, human IgG1, kappa)
heavy 1: not shown
heavy 2: not shown
light: B1 light
notes: also called He Ab T335_10E
B47: GpH7-A5/GpH7-B3 variant H268_19Q/GpL16-k0 (antibody, human IgG1, kappa)
heavy 1: not shown
heavy 2: not shown
light: B1 light
notes: also called He Ab H268_19Q
B48: GpH7-A5/GpH7-B3 variant K334_13S/GpL16-k0 (antibody, human IgG1, kappa)
heavy 1: not shown
heavy 2: not shown
light: B1 light
notes: also called He Ab K334_13S
B49: GpH7-A5/GpH7-B3 variant L328_06M/GpL16-k0 (antibody, human IgG1, kappa)
heavy 1: not shown
heavy 2: not shown
light: B1 light
notes: also called He Ab L328_06M
B50: GpH7-A5/GpH7-B3 variant S324_02A/GpL16-k0 (antibody, human IgG1, kappa)
heavy 1: not shown
heavy 2: not shown
light: B1 light
notes: also called He Ab S324_02A
B51: GpH7-A5/GpH7-B3 variant Y296_18N/GpL16-k0 (antibody, human IgG1, kappa)
heavy 1: not shown
heavy 2: not shown
light: B1 light
notes: also called He Ab Y296_18N
B52: GpH7-A5/GpH7-B3 variant I336_08L/GpL16-k0 (antibody, human IgG1, kappa)
heavy 1: not shown
heavy 2: not shown
light: B1 light
notes: also called He Ab I336_08L
B53: GpH7-A5/GpH7-B3 variant T335_19Q/GpL16-k0 (antibody, human IgG1, kappa)
heavy 1: not shown
heavy 2: not shown
light: B1 light
notes: also called He Ab T335_19Q
B54: GpH7-A5/GpH7-B3 variant T335_01G/GpL16-k0 (antibody, human IgG1, kappa)
heavy 1: not shown
heavy 2: not shown
light: B1 light
notes: also called He Ab T335_01G

These binders were tested against FcγRIIa H (human, UniProt P12318 34-217) (assay: SPR Biacore, captured antibody, FcγR analyte; vs GpH7-A5/GpH7-B3/GpL16-k0 = 100).
FcγRIIa H, sequence (P12318 34-217): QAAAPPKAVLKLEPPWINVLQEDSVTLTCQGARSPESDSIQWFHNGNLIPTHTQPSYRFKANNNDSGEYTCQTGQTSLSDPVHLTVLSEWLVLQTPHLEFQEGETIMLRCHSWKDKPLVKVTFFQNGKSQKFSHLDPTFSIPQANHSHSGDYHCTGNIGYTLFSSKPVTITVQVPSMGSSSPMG

Row | He/Con_2aH | Binder
1 | 101 % of control | B1
2 | 120 % of control | B2
3 | 105 % of control | B3
4 | 114 % of control | B4
5 | 103 % of control | B5
6 | 108 % of control | B6
7 | 119 % of control | B7
8 | 100 % of control | B8
9 | 106 % of control | B9
10 | 122 % of control | B10
11 | 106 % of control | B11
12 | 104 % of control | B12
13 | 101 % of control | B13
14 | 101 % of control | B14
15 | 103 % of control | B15
16 | 102 % of control | B16
17 | 114 % of control | B17
18 | 100 % of control | B18
19 | 104 % of control | B19
20 | 106 % of control | B20
21 | 104 % of control | B21
22 | 116 % of control | B22
23 | 107 % of control | B23
24 | 114 % of control | B24
25 | 102 % of control | B25
26 | 102 % of control | B26
27 | 106 % of control | B27

Row | He/Con_2aH | Binder
28 | 103 % of control | B28
29 | 106 % of control | B29
30 | 102 % of control | B30
31 | 112 % of control | B31
32 | 113 % of control | B32
33 | 120 % of control | B33
34 | 105 % of control | B34
35 | 105 % of control | B35
36 | 111 % of control | B36
37 | 101 % of control | B37
38 | 118 % of control | B38
39 | 115 % of control | B39
40 | 112 % of control | B40
41 | 120 % of control | B41
42 | 104 % of control | B42
43 | 105 % of control | B43
44 | 101 % of control | B44
45 | 104 % of control | B45
46 | 108 % of control | B46
47 | 102 % of control | B47
48 | 102 % of control | B48
49 | 104 % of control | B49
50 | 102 % of control | B50
51 | 104 % of control | B51
52 | 106 % of control | B52
53 | 103 % of control | B53
54 | 103 % of control | B54
